Experimental data as given in patent US10154957B2, “Microneedle device having a peptide therapeutic agent and an amino acid and methods of making and using the same” (3M INNOVATIVE PROPERTIES COMPANY, priority 2011, dated 2018).

Legend:
[1] = Stability of insulin in coating on flood-coated microneedle arrays stored at 40° C./96% RH (HPLC); type: physicochemical; conditions: insulin 5 mg/mL in 0.1 N acetic acid
Description: The protein or polypeptide content in the formulation coated on the microneedle arrays was determined using an Agilent 1100 HPLC system (Agilent Technologies, Wilmington, Del.) equipped with a binary pump, well-plated thermostated autosampler, thermostated column compartment, and a diode array UV detector. A Zorbax 300SB-C8 column (Agilent Technologies, Wilmington, Del.) having a 5 μm particle size and 2.1×150 mm inner diameter was used for the separations. The column was maintained at 50° C. The mobile phase consisted of two eluents. Eluent A was 0.1% TFA (trifluoroacetic acid) in water and eluent B was 0.1% TFA in acetonitrile (Spectrum Chemical, New Brunswick, N.J.). A linear gradient from 80/20 to 50/50 (A/B) was applied over 30 minutes. The flow rate was 0.4 mL/minute and the UV detection wavelength was set at 214 nm. The total run time was 34 minutes and the sample injection volume was 15 μL.
The pH of the sample formulation was 3.0-3.5. […] The pH of the control formulation was 3.0-3.5. Microneedle arrays were coated with either the sample or the control formulation. The coating was applied by dropwise addition of 50 μL of the formulation to the portion of the array defined by the octagon shaped pattern of microneedles. The flood coated arrays (both sample and control formulation coated) were dried in an oven at 35° C. for about 15 hours.
After drying, the coated arrays were placed in a storage chamber that was maintained at 40° C. and 96% relative humidity (RH). […] At the designated time point, an array was taken from the chamber and washed with 0.1 N acetic acid (1 mL) to remove the coating from the array. […] The arrays used as reference standards were stored in a refrigerator at about 4° C. and analyzed within one day of being prepared.
The same procedure as described in Example 5 was used with the exception that the sample formulation contained 12 mg/mL of L-arginine hydrochloride, instead of L-histidine monohydrochloride. The pH of the sample formulation was 3.0-3.5.

[2] = as above; type: physicochemical; conditions: Amino Acid L-Histidine (His-HCl 12 mg/mL), insulin 5 mg/mL in 0.1 N acetic acid

Insulin
Percent of Initial Insulin Content in the Coating ([1]; Amino Acid L-Arginine (Arg-HCl 12 mg/mL), Day 1 at 40° C./96% RH): 75.4% | Percent of Initial Insulin Content in the Coating ([1]; Amino Acid L-Arginine (Arg-HCl 12 mg/mL), Day 3 at 40° C./96% RH): 45.9% | Percent of Initial Insulin Content in the Coating ([1]; Amino Acid L-Arginine (Arg-HCl 12 mg/mL), Day 7 at 40° C./96% RH): 27.1% | Percent of Initial Insulin Content in the Coating ([1]; Amino Acid L-Arginine (Arg-HCl 12 mg/mL), Initial): 100% | Percent of Initial Insulin Content in the Coating ([1]; Amino Acid None (control), Day 3 at 40° C./96% RH): 0% | Percent of Initial Insulin Content in the Coating ([1]; Amino Acid None (control), Day 7 at 40° C./96% RH): 0% | Percent of Initial Insulin Content in the Coating ([1]; Amino Acid None (control), Day 14 at 40° C./96% RH): 0% | Percent of Initial Insulin Content in the Coating ([1]; Amino Acid None (control), Initial): 100% | Percent of Initial Insulin Content in the Coating ([2]; Day 1 at 40° C./96% RH): 95.3% | Percent of Initial Insulin Content in the Coating ([2]; Day 3 at 40° C./96% RH): 93.5% | Percent of Initial Insulin Content in the Coating ([2]; Day 7 at 40° C./96% RH): 79.2% | Percent of Initial Insulin Content in the Coating ([2]; Day 14 at 40° C./96% RH): 34.9% | Percent of Initial Insulin Content in the Coating ([2]; Initial): 100%
